The results in this text go back to paper PMC9365671.

The target of assay [1] is KIF5C-KLC1 heterotetramer (human) (UniProt O60282).
Assay [2] has as its target taxol-stabilised microtubules of porcine brain tubulin (porcine) (UniProt P02550). In words: single-molecule TIRF microscopy on microtubules; biotinylated taxol-stabilised MTs held on streptavidin-coated glass, motor in solution; 90 mM HEPES-KOH pH 7.6, 50 mM KCH3COO, 2 mM Mg(CH3COO)2, 1 mM EGTA, 10% glycerol, 2 mM ATP; landing rate = processive and non-processive events per MT length, time and motor concentration. Further details: landing rate: unit not given here.

The target is the same in assay [3]. The assay is described as above.

Read-outs that look alike come from different tables or passages of the source.

Chain of full-length human KIF5B-mScarlet-StrepII (P33176 whole entry): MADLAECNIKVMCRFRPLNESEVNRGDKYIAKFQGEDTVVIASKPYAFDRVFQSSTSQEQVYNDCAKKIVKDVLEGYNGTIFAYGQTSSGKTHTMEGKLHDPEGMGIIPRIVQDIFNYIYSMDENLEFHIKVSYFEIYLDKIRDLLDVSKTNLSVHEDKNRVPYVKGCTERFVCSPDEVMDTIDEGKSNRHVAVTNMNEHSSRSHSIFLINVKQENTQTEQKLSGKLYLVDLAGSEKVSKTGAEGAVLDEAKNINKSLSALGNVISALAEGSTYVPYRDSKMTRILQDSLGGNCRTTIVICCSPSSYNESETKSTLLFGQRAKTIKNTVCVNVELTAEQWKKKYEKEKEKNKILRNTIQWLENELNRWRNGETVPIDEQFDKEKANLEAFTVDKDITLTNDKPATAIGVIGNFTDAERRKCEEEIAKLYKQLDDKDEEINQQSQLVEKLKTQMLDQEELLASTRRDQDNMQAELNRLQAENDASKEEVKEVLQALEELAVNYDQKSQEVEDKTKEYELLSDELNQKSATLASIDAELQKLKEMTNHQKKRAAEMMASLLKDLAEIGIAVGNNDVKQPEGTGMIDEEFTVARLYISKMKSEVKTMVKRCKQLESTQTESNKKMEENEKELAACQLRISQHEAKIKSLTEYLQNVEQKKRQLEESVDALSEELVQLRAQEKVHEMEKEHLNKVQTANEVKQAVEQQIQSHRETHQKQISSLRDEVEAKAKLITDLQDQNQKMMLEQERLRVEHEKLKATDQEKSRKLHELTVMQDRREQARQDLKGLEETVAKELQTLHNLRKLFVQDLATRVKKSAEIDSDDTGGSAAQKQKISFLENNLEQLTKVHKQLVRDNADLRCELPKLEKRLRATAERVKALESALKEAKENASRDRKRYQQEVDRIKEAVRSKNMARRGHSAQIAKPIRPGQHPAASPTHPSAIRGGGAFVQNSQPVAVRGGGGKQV
Chain of KIF5C-KLC1 heterotetramer (human) (O60282 whole entry, chain 1 of 2): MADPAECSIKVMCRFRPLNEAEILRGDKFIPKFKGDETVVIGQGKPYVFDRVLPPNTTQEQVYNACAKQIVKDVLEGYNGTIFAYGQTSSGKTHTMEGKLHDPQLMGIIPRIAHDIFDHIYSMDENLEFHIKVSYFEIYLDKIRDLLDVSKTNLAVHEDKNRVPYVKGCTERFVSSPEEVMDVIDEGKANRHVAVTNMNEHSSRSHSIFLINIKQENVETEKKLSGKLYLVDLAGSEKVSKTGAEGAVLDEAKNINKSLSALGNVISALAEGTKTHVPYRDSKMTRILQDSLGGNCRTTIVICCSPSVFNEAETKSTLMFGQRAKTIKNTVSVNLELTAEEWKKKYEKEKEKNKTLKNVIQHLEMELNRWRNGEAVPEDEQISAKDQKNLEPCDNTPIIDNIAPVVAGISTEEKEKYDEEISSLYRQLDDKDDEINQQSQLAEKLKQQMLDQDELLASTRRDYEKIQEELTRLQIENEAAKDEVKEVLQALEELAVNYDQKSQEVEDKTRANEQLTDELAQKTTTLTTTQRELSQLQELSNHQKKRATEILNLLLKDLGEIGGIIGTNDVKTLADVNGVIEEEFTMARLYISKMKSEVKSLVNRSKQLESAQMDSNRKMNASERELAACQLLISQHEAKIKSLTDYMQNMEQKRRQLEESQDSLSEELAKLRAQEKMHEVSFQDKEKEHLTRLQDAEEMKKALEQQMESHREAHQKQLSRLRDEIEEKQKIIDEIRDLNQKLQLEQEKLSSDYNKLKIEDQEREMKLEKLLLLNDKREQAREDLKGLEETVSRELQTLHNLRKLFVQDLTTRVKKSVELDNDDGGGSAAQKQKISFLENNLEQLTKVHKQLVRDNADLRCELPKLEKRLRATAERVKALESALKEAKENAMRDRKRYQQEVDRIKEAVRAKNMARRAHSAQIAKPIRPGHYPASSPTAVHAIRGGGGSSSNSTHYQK
Chain of KIF5C-KLC1 heterotetramer (human) (Q07866 whole entry, chain 2 of 2, further chain): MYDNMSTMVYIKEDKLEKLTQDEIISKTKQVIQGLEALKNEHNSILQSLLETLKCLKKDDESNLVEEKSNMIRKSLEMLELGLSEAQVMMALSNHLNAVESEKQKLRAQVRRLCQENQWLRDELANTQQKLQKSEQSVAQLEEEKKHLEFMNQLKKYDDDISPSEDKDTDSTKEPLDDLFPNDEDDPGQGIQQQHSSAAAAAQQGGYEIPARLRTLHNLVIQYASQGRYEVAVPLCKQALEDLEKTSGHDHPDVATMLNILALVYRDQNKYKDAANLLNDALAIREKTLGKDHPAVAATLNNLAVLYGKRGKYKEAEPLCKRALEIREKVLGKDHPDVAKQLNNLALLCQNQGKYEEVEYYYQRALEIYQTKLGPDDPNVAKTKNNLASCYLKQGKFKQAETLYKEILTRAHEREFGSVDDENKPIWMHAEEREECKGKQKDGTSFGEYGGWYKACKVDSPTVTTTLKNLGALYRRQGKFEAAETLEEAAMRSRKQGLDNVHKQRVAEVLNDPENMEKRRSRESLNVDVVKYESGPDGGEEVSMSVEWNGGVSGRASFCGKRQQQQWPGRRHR
Chain of KIF5B-Δhinge (Δ505-610)-mScarlet-StrepII (P33176 other isoform, or with tags, fused parts or gaps mutant): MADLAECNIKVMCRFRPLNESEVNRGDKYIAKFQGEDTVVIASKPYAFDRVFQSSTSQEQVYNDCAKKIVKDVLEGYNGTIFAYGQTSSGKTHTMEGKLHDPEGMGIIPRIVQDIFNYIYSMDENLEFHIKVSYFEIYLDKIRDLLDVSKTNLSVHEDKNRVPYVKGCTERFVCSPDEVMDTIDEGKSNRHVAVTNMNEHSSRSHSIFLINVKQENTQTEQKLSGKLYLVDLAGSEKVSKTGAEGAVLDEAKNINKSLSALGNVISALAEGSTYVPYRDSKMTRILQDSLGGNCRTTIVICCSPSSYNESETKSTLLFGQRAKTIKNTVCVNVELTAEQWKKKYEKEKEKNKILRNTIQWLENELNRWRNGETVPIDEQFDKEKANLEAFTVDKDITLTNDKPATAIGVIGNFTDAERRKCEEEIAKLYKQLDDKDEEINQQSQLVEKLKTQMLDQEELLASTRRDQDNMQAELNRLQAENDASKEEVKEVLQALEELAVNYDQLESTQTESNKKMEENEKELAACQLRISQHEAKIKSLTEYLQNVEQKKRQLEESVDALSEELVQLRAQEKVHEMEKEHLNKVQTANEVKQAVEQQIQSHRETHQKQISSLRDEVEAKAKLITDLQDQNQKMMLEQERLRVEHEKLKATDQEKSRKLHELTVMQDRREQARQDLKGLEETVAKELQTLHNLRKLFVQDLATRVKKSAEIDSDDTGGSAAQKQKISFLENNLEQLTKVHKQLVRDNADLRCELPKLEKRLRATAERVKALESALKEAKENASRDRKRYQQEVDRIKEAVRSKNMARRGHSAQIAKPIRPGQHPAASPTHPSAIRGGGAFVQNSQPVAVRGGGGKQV
Chain of tail-truncated human KIF5A (aa 1-416)-mScarlet-StrepII (Q12840 1-416): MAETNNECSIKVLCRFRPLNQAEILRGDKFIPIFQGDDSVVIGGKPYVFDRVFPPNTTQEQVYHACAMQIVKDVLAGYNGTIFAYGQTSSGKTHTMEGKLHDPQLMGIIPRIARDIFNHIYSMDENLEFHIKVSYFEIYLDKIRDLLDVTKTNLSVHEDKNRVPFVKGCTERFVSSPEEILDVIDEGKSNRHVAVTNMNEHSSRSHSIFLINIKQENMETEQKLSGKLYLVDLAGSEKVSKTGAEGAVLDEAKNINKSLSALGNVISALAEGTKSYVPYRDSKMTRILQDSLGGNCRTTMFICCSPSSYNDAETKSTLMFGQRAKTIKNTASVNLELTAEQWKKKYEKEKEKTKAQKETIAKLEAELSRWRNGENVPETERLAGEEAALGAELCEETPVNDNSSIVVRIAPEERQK
Chain of KIF5B-IAK/AAA-mScarlet-StrepII (P33176 whole entry I920A/K922A): as the sequence (P33176 whole entry) above, with I920A, K922A counted along it
Chain of tail-truncated human KIF5C (aa 1-416)-mScarlet-StrepII (O60282 1-416): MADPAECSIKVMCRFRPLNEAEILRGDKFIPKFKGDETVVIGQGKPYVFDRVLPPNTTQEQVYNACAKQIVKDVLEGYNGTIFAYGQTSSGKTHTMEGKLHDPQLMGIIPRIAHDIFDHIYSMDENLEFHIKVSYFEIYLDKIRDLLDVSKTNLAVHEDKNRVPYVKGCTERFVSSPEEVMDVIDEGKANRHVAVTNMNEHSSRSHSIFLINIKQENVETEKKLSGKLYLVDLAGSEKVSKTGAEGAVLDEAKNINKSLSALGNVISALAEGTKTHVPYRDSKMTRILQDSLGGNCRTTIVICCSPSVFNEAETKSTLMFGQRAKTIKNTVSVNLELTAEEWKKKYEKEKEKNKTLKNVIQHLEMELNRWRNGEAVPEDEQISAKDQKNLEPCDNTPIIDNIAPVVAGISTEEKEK
Chain of tail-truncated human KIF5B (aa 1-420)-mScarlet-StrepII (P33176 1-420): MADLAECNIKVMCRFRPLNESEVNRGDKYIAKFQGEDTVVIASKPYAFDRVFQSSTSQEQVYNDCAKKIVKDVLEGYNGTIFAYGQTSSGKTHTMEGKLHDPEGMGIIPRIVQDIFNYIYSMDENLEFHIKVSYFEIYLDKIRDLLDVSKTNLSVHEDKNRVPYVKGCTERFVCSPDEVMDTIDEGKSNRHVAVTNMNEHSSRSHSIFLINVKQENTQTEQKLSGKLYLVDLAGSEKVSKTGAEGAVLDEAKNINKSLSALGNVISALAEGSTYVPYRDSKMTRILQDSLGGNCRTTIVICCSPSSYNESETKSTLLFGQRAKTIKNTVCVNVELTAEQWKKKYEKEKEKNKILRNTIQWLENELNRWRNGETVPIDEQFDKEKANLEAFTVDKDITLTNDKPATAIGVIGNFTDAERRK

For the substance “6xHis-2xStrepII-sfGFP-nesprin-4 (aa 1-240) WD/AA (from UniProt Q8N205-2 1-240) (domain or fragment)”, the landing rate of 10 nM KIF5C-KLC1 on MTs (ATP) with 500 nM nesprin-4 WDAA (0.1 without) in assay [1] is 0.2 /μm/s/μM. As to “KIF5A-KLC1 heterotetramer (from UniProt Q12840 1-1032; Q07866 1-573) (complex)”, the landing rate in assay [2] is 0.1. Turning to “KIF5B-E178A-mScarlet-StrepII (from UniProt P33176 1-963) (natural protein)”, the landing rate in assay [3] was 6.2 /μm/s/μM. The same measure, in the same setting: to “KIF5B-H129A-mScarlet-StrepII (from UniProt P33176 1-963) (natural protein)” belongs 5.4 /μm/s/μM; to “KIF5B-IAK/AAA-mScarlet-StrepII (from UniProt P33176 1-963) (natural protein)”, 7 /μm/s/μM. “KIF5B-KLC1 heterotetramer (from UniProt P33176 1-963; Q07866 1-573) (complex)” had a landing rate (Motors/μm/s/μm) in assay [2] of 0.06. For the substance “KIF5B-Δhinge (Δ505-610)-mScarlet-StrepII (from UniProt P33176 1-963) (natural protein)”, the landing rate in assay [3] was 22.8 /μm/s/μM. Substance “KIF5C-KLC1 heterotetramer (from UniProt O60282 1-957; Q07866 1-573) (complex)” gave a landing rate in assay [2] of 0.06. In assay [2], “full-length human KIF5B-mScarlet-StrepII (from UniProt P33176 1-963) (natural protein)” gave a landing rate (Motors/μm/s/μm) of 0.08.

In assay [2], “tail-truncated human KIF5A (aa 1-416)-mScarlet-StrepII (from UniProt Q12840 1-416) (domain or fragment)” returned a landing rate (motors/µm/s/µM) of 162.

With “tail-truncated human KIF5B (aa 1-420)-mScarlet-StrepII (from UniProt P33176 1-420) (domain or fragment)”, in assay [2], the landing rate (motors/µm/s/µM) is 146. For “tail-truncated human KIF5C (aa 1-416)-mScarlet-StrepII (from UniProt O60282 1-416) (domain or fragment)”, the landing rate (motors/µm/s/µM) in assay [2] worked out at 147.
